{"source": "paper PMC4031084", "about": "“The Phytochrome B/Phytochrome C Heterodimer Is Necessary for Phytochrome C-Mediated Responses in Rice Seedlings” (PLoS ONE, 2014)", "key": {"recombinant rice phyA": {"target": "T1, recombinant rice phyA (Oryza sativa, UniProt Q10DU0)", "T1 construct": "full length; phytochromobilin-producing E. coli Rosetta 2; homodimer on SEC", "T1 sequence (Q10DU0 1-1128)": "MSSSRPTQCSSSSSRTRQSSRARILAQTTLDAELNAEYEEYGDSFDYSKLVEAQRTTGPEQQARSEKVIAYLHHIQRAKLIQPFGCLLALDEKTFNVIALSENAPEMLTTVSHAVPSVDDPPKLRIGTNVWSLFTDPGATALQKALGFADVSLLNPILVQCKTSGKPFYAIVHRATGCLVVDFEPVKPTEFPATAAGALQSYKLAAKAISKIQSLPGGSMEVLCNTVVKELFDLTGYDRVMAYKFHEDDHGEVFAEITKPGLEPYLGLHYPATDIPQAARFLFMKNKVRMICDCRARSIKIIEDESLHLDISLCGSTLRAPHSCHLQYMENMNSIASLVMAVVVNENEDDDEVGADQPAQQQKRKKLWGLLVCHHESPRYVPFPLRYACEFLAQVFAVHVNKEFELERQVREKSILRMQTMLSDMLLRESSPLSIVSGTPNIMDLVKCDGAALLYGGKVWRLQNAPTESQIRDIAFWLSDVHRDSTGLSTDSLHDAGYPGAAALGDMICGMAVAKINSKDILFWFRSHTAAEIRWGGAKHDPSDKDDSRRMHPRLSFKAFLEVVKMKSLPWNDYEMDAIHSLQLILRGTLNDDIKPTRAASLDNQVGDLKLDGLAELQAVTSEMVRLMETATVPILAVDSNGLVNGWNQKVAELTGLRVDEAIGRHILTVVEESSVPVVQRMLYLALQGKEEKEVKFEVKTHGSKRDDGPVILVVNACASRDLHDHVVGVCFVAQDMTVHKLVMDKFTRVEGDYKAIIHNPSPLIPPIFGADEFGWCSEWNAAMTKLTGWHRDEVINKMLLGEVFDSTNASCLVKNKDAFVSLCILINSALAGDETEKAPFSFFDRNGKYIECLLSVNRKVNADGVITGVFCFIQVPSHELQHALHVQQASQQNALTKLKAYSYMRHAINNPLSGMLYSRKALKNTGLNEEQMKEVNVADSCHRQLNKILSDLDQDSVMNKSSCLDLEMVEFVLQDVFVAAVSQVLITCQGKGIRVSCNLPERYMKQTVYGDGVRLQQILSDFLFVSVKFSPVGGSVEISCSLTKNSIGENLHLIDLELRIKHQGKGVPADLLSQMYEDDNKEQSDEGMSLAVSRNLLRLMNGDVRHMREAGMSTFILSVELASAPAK", "assay": "R/FR absorbance difference spectroscopy of the purified holoprotein", "format": "binding", "conditions": "covalent; chromophore assembled in E. coli"}, "recombinant rice phyC": {"target": "T2, recombinant rice phyC (Oryza sativa, UniProt Q10CQ8)", "T2 construct": "full length; phytochromobilin-producing E. coli Rosetta 2; monomer on SEC", "T2 sequence (Q10CQ8 1-1137)": "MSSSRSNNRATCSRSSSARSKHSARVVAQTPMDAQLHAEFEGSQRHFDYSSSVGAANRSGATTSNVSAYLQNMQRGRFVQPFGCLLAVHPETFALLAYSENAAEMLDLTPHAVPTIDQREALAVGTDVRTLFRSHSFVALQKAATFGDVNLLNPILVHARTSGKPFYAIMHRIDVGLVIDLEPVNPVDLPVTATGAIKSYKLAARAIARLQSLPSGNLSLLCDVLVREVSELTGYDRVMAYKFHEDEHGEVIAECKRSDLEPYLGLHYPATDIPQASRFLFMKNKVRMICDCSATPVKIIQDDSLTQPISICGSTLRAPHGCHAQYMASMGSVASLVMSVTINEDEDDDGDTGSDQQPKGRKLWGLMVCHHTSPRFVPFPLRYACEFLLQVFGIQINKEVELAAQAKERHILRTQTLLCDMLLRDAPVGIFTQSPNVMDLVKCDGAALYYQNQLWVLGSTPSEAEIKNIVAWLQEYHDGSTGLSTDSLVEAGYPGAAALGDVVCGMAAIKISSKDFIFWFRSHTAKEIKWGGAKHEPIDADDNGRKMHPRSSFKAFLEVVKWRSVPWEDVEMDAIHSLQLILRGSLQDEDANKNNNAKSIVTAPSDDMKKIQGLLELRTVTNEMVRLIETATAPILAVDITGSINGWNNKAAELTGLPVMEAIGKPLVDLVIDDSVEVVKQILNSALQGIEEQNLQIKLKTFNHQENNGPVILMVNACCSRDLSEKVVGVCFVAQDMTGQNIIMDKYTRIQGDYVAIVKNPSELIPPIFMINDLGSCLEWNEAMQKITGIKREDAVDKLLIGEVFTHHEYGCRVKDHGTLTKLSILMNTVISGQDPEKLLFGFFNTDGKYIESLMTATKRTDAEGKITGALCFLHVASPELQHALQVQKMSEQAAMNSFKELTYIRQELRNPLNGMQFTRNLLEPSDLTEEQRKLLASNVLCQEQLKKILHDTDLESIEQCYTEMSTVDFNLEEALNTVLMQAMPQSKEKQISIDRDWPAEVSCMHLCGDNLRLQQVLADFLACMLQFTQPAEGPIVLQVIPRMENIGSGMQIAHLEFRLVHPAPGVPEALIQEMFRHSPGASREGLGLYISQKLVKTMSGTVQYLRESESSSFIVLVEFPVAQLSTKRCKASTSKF", "assay": "R/FR absorbance difference spectroscopy of the purified holoprotein", "format": "binding", "conditions": "covalent; chromophore assembled in E. coli"}, "[1]": {"target": "the molecule itself", "assay": "SEC; protein extracts (1 mg total soluble protein) of etiolated seedlings of WT and phytochrome single and double mutants on Superdex 200 HR 10/30; 50 mM Na-phosphate pH 7.0, 150 mM NaCl, 4 C; fractions immunoblotted with anti-PHYA, anti-PHYB, anti-PHYC; column calibrated with molecular weight standards"}, "[2]": {"target": "the molecule itself", "assay": "SEC; recombinant phyA or phyC from E. coli fractionated on the same column; fractions #17-#24 immunoblotted with anti-His tag or anti-phytochrome antibodies"}}}
{"molecule": "C=CC1=C(C)C(=CC2=NC(=Cc3[nH]c(C=C4NC(=O)C(C)C4=CC)c(C)c3CCC(=O)O)C(CCC(=O)O)=C2C)NC1=O", "note": "(centres unmarked) [phytochromobilin]", "values": [{"measurement": "R/FR absorbance difference spectroscopy of the purified holoprotein", "setting": "recombinant rice phyA", "result": "recombinant phyA was also expressed using the same experimental procedure"}, {"measurement": "R/FR absorbance difference spectroscopy of the purified holoprotein", "setting": "recombinant rice phyC", "result": "Recombinant phyC with phytochromobilins as a chromophore was expressed in E. coli"}]}
{"molecule": "rice phytochrome A (phyA), native (natural protein, UniProt Q10DU0 1-1128, looked up, phytochrome A of rice (Oryza sativa L. cv. Nipponbare), native protein in seedling extracts; source: endogenous, soluble protein extract of etiolated rice seedlings) MSSSRPTQCSSSSSRTRQSSRARILAQTTLDAELNAEYEEYGDSFDYSKLVEAQRTTGPEQQARSEKVIAYLHHIQRAKLIQPFGCLLALDEKTFNVIALSENAPEMLTTVSHAVPSVDDPPKLRIGTNVWSLFTDPGATALQKALGFADVSLLNPILVQCKTSGKPFYAIVHRATGCLVVDFEPVKPTEFPATAAGALQSYKLAAKAISKIQSLPGGSMEVLCNTVVKELFDLTGYDRVMAYKFHEDDHGEVFAEITKPGLEPYLGLHYPATDIPQAARFLFMKNKVRMICDCRARSIKIIEDESLHLDISLCGSTLRAPHSCHLQYMENMNSIASLVMAVVVNENEDDDEVGADQPAQQQKRKKLWGLLVCHHESPRYVPFPLRYACEFLAQVFAVHVNKEFELERQVREKSILRMQTMLSDMLLRESSPLSIVSGTPNIMDLVKCDGAALLYGGKVWRLQNAPTESQIRDIAFWLSDVHRDSTGLSTDSLHDAGYPGAAALGDMICGMAVAKINSKDILFWFRSHTAAEIRWGGAKHDPSDKDDSRRMHPRLSFKAFLEVVKMKSLPWNDYEMDAIHSLQLILRGTLNDDIKPTRAASLDNQVGDLKLDGLAELQAVTSEMVRLMETATVPILAVDSNGLVNGWNQKVAELTGLRVDEAIGRHILTVVEESSVPVVQRMLYLALQGKEEKEVKFEVKTHGSKRDDGPVILVVNACASRDLHDHVVGVCFVAQDMTVHKLVMDKFTRVEGDYKAIIHNPSPLIPPIFGADEFGWCSEWNAAMTKLTGWHRDEVINKMLLGEVFDSTNASCLVKNKDAFVSLCILINSALAGDETEKAPFSFFDRNGKYIECLLSVNRKVNADGVITGVFCFIQVPSHELQHALHVQQASQQNALTKLKAYSYMRHAINNPLSGMLYSRKALKNTGLNEEQMKEVNVADSCHRQLNKILSDLDQDSVMNKSSCLDLEMVEFVLQDVFVAAVSQVLITCQGKGIRVSCNLPERYMKQTVYGDGVRLQQILSDFLFVSVKFSPVGGSVEISCSLTKNSIGENLHLIDLELRIKHQGKGVPADLLSQMYEDDNKEQSDEGMSLAVSRNLLRLMNGDVRHMREAGMSTFILSVELASAPAK", "values": [{"measurement": "stoichiometry N", "setting": "[1]", "result": 2}]}
{"molecule": "recombinant rice phyA with phytochromobilin (natural protein, UniProt Q10DU0 1-1128, looked up, phytochromobilin as chromophore, full length rice phytochrome A; also called recombinant phyA; source: E. coli Rosetta 2 cells expressing phytochromobilin, purified; not shown: His6, C-terminal, kept) MSSSRPTQCSSSSSRTRQSSRARILAQTTLDAELNAEYEEYGDSFDYSKLVEAQRTTGPEQQARSEKVIAYLHHIQRAKLIQPFGCLLALDEKTFNVIALSENAPEMLTTVSHAVPSVDDPPKLRIGTNVWSLFTDPGATALQKALGFADVSLLNPILVQCKTSGKPFYAIVHRATGCLVVDFEPVKPTEFPATAAGALQSYKLAAKAISKIQSLPGGSMEVLCNTVVKELFDLTGYDRVMAYKFHEDDHGEVFAEITKPGLEPYLGLHYPATDIPQAARFLFMKNKVRMICDCRARSIKIIEDESLHLDISLCGSTLRAPHSCHLQYMENMNSIASLVMAVVVNENEDDDEVGADQPAQQQKRKKLWGLLVCHHESPRYVPFPLRYACEFLAQVFAVHVNKEFELERQVREKSILRMQTMLSDMLLRESSPLSIVSGTPNIMDLVKCDGAALLYGGKVWRLQNAPTESQIRDIAFWLSDVHRDSTGLSTDSLHDAGYPGAAALGDMICGMAVAKINSKDILFWFRSHTAAEIRWGGAKHDPSDKDDSRRMHPRLSFKAFLEVVKMKSLPWNDYEMDAIHSLQLILRGTLNDDIKPTRAASLDNQVGDLKLDGLAELQAVTSEMVRLMETATVPILAVDSNGLVNGWNQKVAELTGLRVDEAIGRHILTVVEESSVPVVQRMLYLALQGKEEKEVKFEVKTHGSKRDDGPVILVVNACASRDLHDHVVGVCFVAQDMTVHKLVMDKFTRVEGDYKAIIHNPSPLIPPIFGADEFGWCSEWNAAMTKLTGWHRDEVINKMLLGEVFDSTNASCLVKNKDAFVSLCILINSALAGDETEKAPFSFFDRNGKYIECLLSVNRKVNADGVITGVFCFIQVPSHELQHALHVQQASQQNALTKLKAYSYMRHAINNPLSGMLYSRKALKNTGLNEEQMKEVNVADSCHRQLNKILSDLDQDSVMNKSSCLDLEMVEFVLQDVFVAAVSQVLITCQGKGIRVSCNLPERYMKQTVYGDGVRLQQILSDFLFVSVKFSPVGGSVEISCSLTKNSIGENLHLIDLELRIKHQGKGVPADLLSQMYEDDNKEQSDEGMSLAVSRNLLRLMNGDVRHMREAGMSTFILSVELASAPAK", "values": [{"measurement": "stoichiometry N", "setting": "[2]", "result": 2}]}
{"molecule": "rice phytochrome B (phyB), native (natural protein, UniProt Q10MG9 1-1171, looked up, phytochrome B of rice (Oryza sativa L. cv. Nipponbare), native protein in seedling extracts; Native photoreceptor; source: endogenous, soluble protein extract of rice seedlings (etiolated or white-light-grown)) MASGSRATPTRSPSSARPAAPRHQHHHSQSSGGSTSRAGGGGGGGGGGGGGAAAAESVSKAVAQYTLDARLHAVFEQSGASGRSFDYTQSLRASPTPSSEQQIAAYLSRIQRGGHIQPFGCTLAVADDSSFRLLAYSENTADLLDLSPHHSVPSLDSSAVPPPVSLGADARLLFAPSSAVLLERAFAAREISLLNPLWIHSRVSSKPFYAILHRIDVGVVIDLEPARTEDPALSIAGAVQSQKLAVRAISRLQALPGGDVKLLCDTVVEYVRELTGYDRVMVYRFHEDEHGEVVAESRRNNLEPYIGLHYPATDIPQASRFLFRQNRVRMIADCHAAPVRVIQDPALTQPLCLVGSTLRSPHGCHAQYMANMGSIASLVMAVIISSGGDDDHNISRGSIPSAMKLWGLVVCHHTSPRCIPFPLRYACEFLMQAFGLQLNMELQLAHQLSEKHILRTQTLLCDMLLRDSPTGIVTQSPSIMDLVKCDGAALYYHGKYYPLGVTPTEVQIKDIIEWLTMCHGDSTGLSTDSLADAGYPGAAALGDAVSGMAVAYITPSDYLFWFRSHTAKEIKWGGAKHHPEDKDDGQRMHPRSSFKAFLEVVKSRSLPWENAEMDAIHSLQLILRDSFRDSAEGTSNSKAIVNGQVQLGELELRGIDELSSVAREMVRLIETATVPIFAVDTDGCINGWNAKVAELTGLSVEEAMGKSLVNDLIFKESEETVNKLLSRALRGDEDKNVEIKLKTFGPEQSKGPIFVIVNACSSRDYTKNIVGVCFVGQDVTGQKVVMDKFINIQGDYKAIVHNPNPLIPPIFASDENTCCSEWNTAMEKLTGWSRGEVVGKLLVGEVFGNCCRLKGPDALTKFMIVLHNAIGGQDCEKFPFSFFDKNGKYVQALLTANTRSRMDGEAIGAFCFLQIASPELQQAFEIQRHHEKKCYARMKELAYIYQEIKNPLNGIRFTNSLLEMTDLKDDQRQFLETSTACEKQMSKIVKDASLQSIEDGSLVLEKGEFSLGSVMNAVVSQVMIQLRERDLQLIRDIPDEIKEASAYGDQYRIQQVLCDFLLSMVRFAPAENGWVEIQVRPNIKQNSDGTDTMLFLFRFACPGEGLPPEIVQDMFSNSRWTTQEGIGLSICRKILKLMGGEVQYIRESERSFFHIVLELPQPQQAASRGTS", "values": [{"measurement": "stoichiometry N", "setting": "[1]", "result": 2}]}
